Changes are numbered by the printed parent chain. Values belong to the binder of their own block, whether it stands above or below them.
Key:
[1] = biological target: T1, HLA-A2/MAGE-A4 complex, recombinant (HLA-A*02:01 extracellular domain, human b2m, MAGE-A4 peptide 230-239 …) (human, UniProt P04439 25-299 at identity 0.94); P61769 21-119); test: direct ELISA, plate coated with HLA-A2/MAGE-A4 complex, serial dilution of the antibody
T1 construct: also called MAGE-A4 pMHC; MAGE-A4/HLA-A2 complex
Experimental: All available hits were evaluated for their ability to bind MAGE-A4/HLA-A2 complex and a control peptide/HLA-A2 complex in a direct binding ELISA assay. […] Briefly, 96 well ELISA plates were coated with purified human MAGE-A4/HLA-A2 complex or control HLA-A2 complex. Serial dilutions of antibody molecules were added to the plate and detected by an anti-kappa light chain-HRP (Invitrogen) or a purified rabbit anti-VHH (QVQ) followed by goat anti-rabbit IgG(H+L) HRP (Southern Biotech). […] 5B.

[2] = biological target: T2, control peptide 2 (…) displayed by HLA-A2 on T2 cells (human); test: flow cytometry on peptide-pulsed T2 cells, relative MFI (binding over peptide loading)
T2 construct: whole, on cells; also called Ctrl.2
Experimental: (§1) TAP-deficient T2 cells were pulsed with HLA-A2-restricted peptides (MAGE-A4 or control peptides) and incubated with MAGE-A4 binders followed by fluorophore-labeled specific detection antibodies and analysis by flow cytometry.
(§2) Briefly, T-B hybrid T2 cells were incubated with serum-free RPMI1640 medium containing MAGE-A4 or control peptides. […] Peptide loading efficiency was verified by using the ratio between median fluorescent intensity (MFI) of HLA-A2-binding antibody BB7.2 on peptide loaded T2 cells and MFI of unloaded T2 cells (>1). T2 cells were incubated with each of the specific antibodies followed by fluorophore-labeled detection antibodies (anti-kappa light chain or anti-Flag). The cells were fixed and fluorescence was measured by flow cytometry.

[3] = biological target: T3, control peptide 1 (…) displayed by HLA-A2 on T2 cells (human); test: as above
T3 construct: whole, on cells; also called Ctrl.1
Experimental: as §1, §2

[4] = biological target: T1, HLA-A2/MAGE-A4 complex, recombinant …; test: phage display biopanning and screening

B1: M0742 (VHH)
VHH: EVQLVESGGGLVQPRGSLRLSCAASGFTFSNSGMSWVRQAPGKGLEWVSSISSGGSSTTYLDSVKGRFTISRDNAKNTLYLQMNSLKPEDTAVYYCSWADLRGRGTQVTVSS
notes: Llama-derived VHH; detected with anti-VHH (ELISA) or anti-Flag (flow)
- EC50 (read off the curve) [1]: ~0.02 µg/mL
- binding result [2]: binds
- binding result [3]: no binding

B2: M0702 (Fab, V domains shown)
VH: QEQLEESGGGLVTPGTPLTLTCTASGFSLSSYAMIWVRQAPGKGLEWIGTINDGGTAFYANWVKGRFTISRTSTTVDLKMTSPTTEDTATYFCARAYGSNGDVYWGYVNLWGQGTLVTVSS
VL: ELVMTQTPASVSEPVGGTVTIKCQASQSIGSNLAWYQQKPGQPPKLLIYAAANLASGVSSRFKGSRSGTEYTLTISGVQAADAATYYCQQGYSSSNVANVFGGGTELEILR
- EC50 (read off the curve) [1]: ~0.6 nM

B3: M0709 (Fab, V domains shown)
VH: QSVKESGGRLVTPGTPLTLTCTVSGFSLSNYAMSWVRQAPGKGLEYIGIVSSGGTTYYASWAKGRFTISKTSTTVDLKITSPTTEDTATYFCAKDLYYGPTTYSAFNLWGQGTLVTVSS
VL: SELVLTQPQSVSGSLGQTVSISCKRARDNIEDYYVHWYQQHPGKTPTIVIHKDDQRPSGVPDRFSGSIDSTSNSASLTITGLLAEDEADYFCQSFDNDASPVFGGGTQLTVTG
- binding result [2]: binds
- binding result [3]: binds

B7: M0752 (VHH)
VHH: EVQLVESGGGLVQPGGSLRLSCAASGFTFSNYGMSWVRQAPGKGLEWVSSIGSGGRITTYLDSVKGRFTISRDNAKNTLYLQMNSLKSEDTAVYYCESGGYRGQGTQVTVSS
notes: Llama-derived VHH
- binding result [4]: binds

B8: M0749 (VHH)
VHH: EVQLVESGGGSVQPGGSLRLSCAASGFTFSRSTMSWVRQAPGKEIEWVSSVSGSGGVTTYADSVKGRFTISRDNAKNTLYLQMSSLKPEDTAVYYCGNSNARGQGTQVTVSS
notes: Llama-derived VHH
- binding result [4]: binds

B9: M0705 (Fab, V domains shown)
VH: QQQLVESGGRLVTPGTPLTLTCTASGIDLNSNAMSWVRQGPGKGLEWIGDIWSGGYTDYASWAKGRFTISKTSTTVDLKMTSLTAADTATYFCARDRLAGDGVVDYDLWGQGTLVTVSS
VL: ELDMTQTPASVEVAVGGTVTIKCQASQNIYSNLAWYQQKPGQRPKLLIYGASTLASGVPSRFKGSGSGTEYTLTINGVQAADAATYYCQQGFSSSNVDNVFGGGTEVVVKR
- binding result [1]: binds

B10: M0741 (VHH)
VHH: EVQLVESGGGAVQAGGSQRLSCTVSGRPFTKYAMGWFRQPPEKEREFVATSTWEGSTYYADSVKGRFTISRDNANNIIDLQMNTLKPEDTAVYFCAASNTYNADTTYYAKSTAFNFWGQGTQVTVSS
notes: Llama-derived VHH
- binding result [4]: binds

B11: M0751 (VHH)
VHH: EVQLVESGGGLVQPGGSLRLSCAASGFSFRLYTMSWVRQAPGKGLEWVSSISSGGGVVTTYADSAKGRFTISRDNDKNTLTLQMNSLKPEDTAVYYCAQGERRGQGTQVTVSS
notes: Llama-derived VHH
- binding result [4]: binds

B15: M0739 (VHH)
VHH: EVQLVESGGGSVQPGGSLRLSCAASGFTFSRSTMSWVRQAPGKGLEWVSSISGSGGVTTYTTSVKGRFTISRDNAKNLMYLQMNSLNPEDTAVYYCANGDNRGPGTQVTVSS
notes: as for B1
- binding result [1]: binds
- binding result [2]: binds
- binding result [3]: no binding

B17: M0738 (VHH)
VHH: EVQLVESGGGLVEAGVSLRLSCAASGRTSENFAMGWFRQAPGNEREFVAAITRNHRTFYKESVKDRFTISRDDAKNTVYLEMNNLVPDDTAVYTCAAKFDPYASASSYYTGYYYWGQGTQVTVSS
notes: Llama-derived VHH
- binding result [4]: binds

B20: M0740 (VHH)
VHH: EVQLVESGGGLVQPGGSLRLSCLASGFPFSMYTMNWVRQAPGKGLEWVSAISSGGAVTTYADSVKGRFTISRDNAKNTLYLQMSSLKPEDTAVYYCESSNNRGQGTQVTVSS
notes: Llama-derived VHH
- binding result [4]: binds

Second part, the binder after the results:

- binding result [1]: binds
B4: M0710 (Fab, V domains shown)
VH: B3 VH
VL: B3 VL with H41Y, H51Y, D98N, S100N, P101V

- binding result [1]: binds
B5: M0708 (Fab, V domains shown)
VH: B3 VH with K4E
VL: B3 VL with D28N, K44R, T45S, D98N, S100N

- binding result [4]: binds
B6: M0735 (VHH)
VHH: EVQLVESGGGLVQAGGSLRLSCAASGLTFRRYTMGWFRQAPGKEREFVAAIVSSDSTNYADSVKGRFTISRDNAKNTVYLEMNSLKPDDTCVYYCAARNSLSLYVSNLGSRYDYWGQGTQVTVSS
notes: Llama-derived VHH

- binding result [4]: binds
B12: M0746 (VHH)
VHH: EVQLVESGGGLVQAGGSLRLSCAASGRTFSNNAMGWFRQGPDQEREFVAAISRSGGGSGGAPLYADSVKGRFTISRDNAKNTMSLSMNSLSPEDTAVYYCAARSLYKVAGSDDLSDYAYWGQGTQVTVSS
notes: Llama-derived VHH

- binding result [4]: binds
B13: M0744 (VHH)
VHH: EVQLVESGGGLVQPGGSLRLSCAASGSIFSINDMDWYRQAPGKQRELVAAITRGGSTNYADSVKGRFTISRDNAKNTVYLQMNSLKPEDTAVYYCNAEVSTETTGWRTWRDYWGQGTQVTVSS
notes: Llama-derived VHH

- binding result [1]: binds
B14: M0766 (Fab, V domains shown)
VH: PEQLEESGGGLVTPGGVLTLTCTASGFSFSSYGVNWVRQAPGKGLEWIGFIFGDGTTYYANWAKGRFTISKTSTTVDLKMTSPTTEDTATYFCARDGYGGYDYIINLWGQGTLVTVSS
VL: AQVLTQTPASVSAAVGGTVSISCQSSQSVVNNNWLAWYQQKPGQPPKLLIYKASTLESGVPSRFKGSGSGTQFTLTISGVQADDAATYYCLGEFSCSSADCHAFGGGTELEILR

- binding result [4]: binds
B16: M0750 (VHH)
VHH: MEVQLVESGGGLVQPGGSLRLSCAASGFTFSRYTMSWVRQAPGEGLEWVSSIGSGGGPTTYANSVKGRFTVSRDNAKNTLWLQMNNLKPEDTALYYCQGGGNRGQGAQVTVSS
notes: Llama-derived VHH

- binding result [4]: binds
B18: M0737 (VHH)
VHH: EVQLVESGGGLVQRGDSRRLSCAASGRPFSSFAMGWFRQAPGKEREFVAGISRSAGNTDYSDSVKGRFTISRDNAKNTVYLELNNLTPEDTAVYYCAAQIAIGTGSVFQSNTQYMYWGQGIQVTVSS
notes: Llama-derived VHH

- binding result [1]: binds
B19: M0762 (Fab, V domains shown)
VH: QSVKESGGRLVTPGTPLTLTCTASGFTISSSAISWVRQAPGKGLEYIGIIRSGGTTDYASWAKGRFAISKTSTTVDLKITSPTTEDTATYFCARDPPYITSTYFDLWGQGTLVTVSS
VL: SELVLTQPQSVSGSLGQTVSISCKRARDSVESYDVHWYQQHPGKTPTIVIYKDDQRPSGVPDRFSGSIDSTSNSASLTITGLLAEDEADYFCQSFDGDAVVFGGGTQLTVTG

- binding result [4]: binds
B21: M0736 (VHH)
VHH: EVQLVESGGGLVQAGGSLRLSCTVSGRTSSAFAMGWFRQAPGKEREFVAAINLTGGTTNYAESVKGRFTISRDNAKNTGYLGMSSLKPEDTAVYYCAGRNRWSEGREVAPSSYYYWGQGTQVTVSS
notes: Llama-derived VHH

- binding result [1]: binds
B22: M0707 (Fab, V domains shown)
VH: QQQLEESGGGLVTPGTPLTLTCTVSGIDLSSYAMGWVRQAPGKGLEWIGTINDGGSAFYASWVKGRFTISRTSTTVDLKITSPTAEDTATYFCAKTYGTNGDVYWGYFNLWGQGTLVTVSS
VL: ELVMTQTPASVSEPVGGTVTIKCQASQSIGSNLAWYQQKPGQPPKLLIYYESILASGVPSRFSGSGSGTEYTLTISGAQADDAATYYCQQGYSSSNILNAFGGGTEVVVKR

- binding result [4]: binds
B23: M0748 (VHH)
VHH: EVQLVESGGGAVQAGGSLRLSCTVSGRPFTKYAWGWFRQPPEKEREFVATSTWDVGSTYYADSAKGRFTISRDNANNIIDLQMNSLKPEDTAVYYCAASNTYSSDITYYAKPMAFNFWGQGTQVTVSS
notes: Llama-derived VHH

- binding result [4]: binds
B24: M0745 (VHH)
VHH: EVQLVESGGGLVQAGGSLRLSCAVSGRRVSIYGMGWYRLAPGKQREMVASITSGGITTYADSVKGRFSISRDNAKNTVYLQMNSLKPEDTAVYYCNYHDYRVQGESWGQGTQVTVSS
notes: Llama-derived VHH
